assay: soluble on expression in E. coli; label from the status in PepcDB or PDB records

Row | Sequence | soluble on expression in E. coli
1 | MAHHHHHHMKPSQPSYDKRAYQTIYPQYLDAELTPHDGRRLTRTQAVDDPTTNEVVEALKELGYTDIFVEPSASFPRSQGSIKYIMPPKGCVKVAIKRPKGEHYIPKSDFDTQTRGVTVEDIPNKMELLRRVSALIKIQHALKKQAEAAAASQTANTRKK | soluble
2 | MGHHHHHHSHMNIFIMRHGEAEVMANSDKARHLTVYGSKQAFLQGQWLKQHLSTLVINSLDRILVSPYVRAQETFHQVNQAFDLELENKFEIWEGITPYGHAHSVIDYLEVLKDEGVKSVLIVSHLPLVGEIVAELYGKRNPISFYPATIAQLLWDGNKSEILMHQASPVIYLK | not soluble
3 | MAHHHHHHMNFPDSRVLSDEFPRRKYKPSSATRLEDIVLKGLHYGQRKLLLSEIEFLSAYLEGRQAGAKPTLVVYAGAANGSHLPFLFQLFEAVKFVLIDPAPFCDAVREISLNKQGPILDLVQGFCTDELCKQLSSSYGSTYDILLVSDIRSGVPEKQSNRENTLMIMRDNDMQRSWCWTLKAEAALLKFHPPYPPCRDRNSRHYDEADDTPESIEYLDGVRLFGVWAPKSSSELRLCVQGPFLQGTSFPMRRYDCTTHEEQCYFYNTDNRYTRDCAAESGILERYLQLFPSAPYSDPTALSMTISNFLGFPLFLPLDSSFSESDARWVTLLYSTRIPTCLELFTTLRGRVTHTVMKQLAEEWQSATTVPKGVSIDSVELTSEFWKAVCAGDLTEAYSFPNIRWRFANLLISRRRKRSASDRAP | not soluble
4 | MSLQVEFRECDPGNLWIWFEFAEPPVPAELEYLKEVLESWYVLGKLGGFNAERLVAQEAEVDLSYLEYPSDSAPLTSLMHNMGSLEEKGNWARCWFDLGTADALALDVLINALRTLSLEYINLSRVIIGGQNEDWPTPDPEETDVYDDLNGYLRDHWGEEGEGHHHHHH | soluble
5 | MSCTTDKLIQKYDALVRKTTEHKFAKELCAGTLKDRSLYIYLSQDLQFFETSLRLICKTTSLAPTTHALITLAKKIGFFSNDENSYFHDCLELLAPSLTKEERDNFDNKAIPGVDAYINFLDELRKDASITWPSLVTSLWVAEELYWRWARDTPRAPGLHWKYQKWIDLHDGEHFQTWCEFLKAEVDKFPVEEVESIFVKVSQFEFEFFESCYNA | not soluble
6 | MLPKRNSGDNELYTNREKRKKMTSYIADSAVFIMGNCGVDSSLLITVPSVADELKSRDSMLRFDLAKEEGLRVEWPEPEMVKEVRKKAEQTRDSEELSKTDLEILAKALEHRETAVLLTDDYAVQNVAVQLGIQVKPIAQKKIKDVLIWQKQCTGCKKTFDKGDECPICGSPLKKKRKRKLKGKGYRESLEHHHHHH | not soluble
7 | MNIELLQQLCEASAVSGDEQEVRDILINTLEPCVNEITFDGLGSFVARKGNKGPKVAVVGHMDEVGFMVTHIDESGFLRFTTIGGWWNQSMLNHRVTIRTHKGVKIPGVIGSVAPHALTEKQKQQPLSFDEMFIDIGANSREEVEKRGVEIGNFISPEANFACWGEDKVVGKALDNRIGCAMMAELLQTVNNPEITLYGVGSVEEEVGLRGAQTSAEHIKPDVVIVLDTAVAGDVPGIDNIKYPLKLGQGPGLMLFDKRYFPNQKLVAALKSCAAHNDLPLQFSTMKTGATDGGRYNVMGGGRPVVALCLPTRYLHANSGMISKADYEALLTLIRGFLTTLTAEKVNAFSQFRQVD | not soluble
8 | MYNIGDKIVYPMHGAGVIESIEEREILGKKQSYYVVKIPIGEMKVLIPIKNVDGIGIREVISEEDADKVFLILKNKALPSNTNWNKRYRENMSKIKSGNIFEVADVVRCLMLRDKLKGLSTGEKKMLNSAKQILISELVLAKNMNPMEIEGMIDKYIS | soluble
9 | MDAHLVQAKKTSTASELSDSSLTFPFIGDYLSSPSLTTSDYVSDCSNLTVEGPVPANQEFSSSDESSVYISSALRLADYAFTPDDNIRIKPDAVIVICTQCQHQIQDKFFLSIDGRNYHENCLQCSTCENPLSNKCFYKDKTFYCKGCYFRTHVTSTASSCRELGPKCASCDRTIQATDWVRRARNYVYHLACFSCNQCKRQLSTGEEYALQEGNLLCKQHFLELVEGDSGVSSQKAKTKRVRTTFAEDQLSVLQTYFNRDSNPDGADLEKIASMTGLSKRVTQVWFQNSRARQKKWHQKSEGDNGDSQRSSVGPSSPSQKSDSSSEMMYPTSVTTSVEDAIPDSIVILGSLQFD | not soluble

Reference: the DeepSol protein solubility set
